This is an account of results in the supplement of paper PMC12042874.

± gives the uncertainty stated by the source.

A short description of the data set: amyloid nucleation score (Sup35N fusion, yeast selection) (log enrichment); library NNK3; higher = more nucleation; inactive = no reads after selection. The method, boiled down:
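Yeast lacking psi expressed peptides of 20 random codons fused to Sup35N, received 100 μM copper sulfate for 24 hours, and were then grown for 7 days at 30°C on medium lacking adenine and uracil. Illumina sequencing of input and output plasmid inserts provided the reads. Nucleation scores are DiMSum log enrichments of output over input, centred on the mode of non-aggregating sequences. Any sequence with under 100 input reads was excluded.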
Consider NMTTLVKTMEDNMDSCISGV, for which the amyloid nucleation score stood at 1.12 ± 0.11. For the substance NMTVSHWGLTMSRL, the amyloid nucleation score came out at 1.26 ± 0.11. As for NMVTYTMIWLWMSMAAPS, the entry is “inactive”; as for NNCVITFFEFSTWGCLYLKF, “inactive”; as for NNFNISLRVRRSFKKCFFVR, 1.85 ± 0.077. For NNFTVAWFYRHGSLSISFGY, the amyloid nucleation score result is “inactive”. Then NNIVNSLYFEMGYGVN, with “inactive”; and NNRCNKFPGYTL, with “inactive”. Then NNRLMYTSHISHACSYQMLK, with “inactive”. As for NNTEHS, the entry is “inactive”; as for NNTVDDSVFWNELDGHTWLV, “inactive”. Consider NNYSRVLSSIIEGIVIR, for which the amyloid nucleation score result is “inactive”.

Take NNYTSPMHRFRSNLFHCVSA: the amyloid nucleation score result is “inactive”. Then NPKSSPVVTFWGTGYFSAGV, with “inactive”; and NPLYVFDRI, with -0.71 ± 0.53; and NQCAS, with “inactive”. As for NRFVIIFSCLCFCPQSDMEL, the figure is 2.37 ± 0.083; as for NRIFIGQVFRIIGPWLGMYH, “inactive”. As for NRKGIR, the figure is -0.009 ± 0.58; as for NRKNTKHLIFFYVFVT, “inactive”. NRQMLYILEINSIIFIQSFC yielded an amyloid nucleation score of 0.903 ± 0.16. As for NRRYFVELCGGNFM, the entry is “inactive”; as for NRVED, “inactive”. As for NRVFPANLSSLSSCSTFTLW, the amyloid nucleation score result was “inactive”. Consider NRVLSVFDLFLRVAFASRFR, for which the amyloid nucleation score result is “inactive”. As for NRVPQWRRRQVGGD, the entry is “inactive”; as for NRYGGSAQGHPMWVTTSREW, “inactive”. As for NRYLVVLRSCS, the amyloid nucleation score entry is “inactive”. As for NSCIFQTRMSGSYETVYHAP, the figure is 0.054 ± 0.45.

As to NSDATIWYFHRCSRLYVAGM, the amyloid nucleation score entry is “inactive”. As for NSFVVTCLVSVGKRGKSRWL, the figure is 1.25 ± 0.13. NSIILFWRLSRGVYSFLPHK: the amyloid nucleation score result was “inactive”. Then NSLCKLGFFSMVKYV, with “inactive”; and NSNIQKHICVQFVKRWLEPC, with “inactive”. Then NSNSGFLVSFLWLSFWNSIS, with “inactive”. In the case of NSSLY, the amyloid nucleation score result is “inactive”. NSSNII showed an amyloid nucleation score of 2.56 ± 0.067. Take NSSSNE: the amyloid nucleation score stood at 1.01 ± 0.22.

In the case of NSVDP, the amyloid nucleation score entry was “inactive”. As for NSVHREECFLITF, the entry is “inactive”; as for NTFCIFALTYIQWVPYLAMF, “inactive”. Then NTGLAFTSYMTMDLLCISGA, with “inactive”; and NTNRSLENDCIRALRQCGLV, with “inactive”. Regarding NTPFFGTGLSQTIAVKHLQM, the amyloid nucleation score entry was “inactive”.

Take NTPRRLHSYLFSTLWY: the amyloid nucleation score entry is “inactive”. As for NTQNLNRVVCLGL, the entry is “inactive”.

For the substance NTRKHFVSWCAHPDEDSSFM, the amyloid nucleation score result is “inactive”.

As to NTRREDSGWTNLCFWCARN, the amyloid nucleation score was 2.01 ± 0.052.

For NTRTLSMYAVHGNIRVFMAE, the amyloid nucleation score was found to be 0.917 ± 0.17.

NTSDPSNRFLPFLYVRLHSS: the amyloid nucleation score result is “inactive”.

For the substance NTSGKCVKIDVRLNTVTS, the amyloid nucleation score result was “inactive”. Then NTSLRYIKLFSVNDALPLP, with “inactive”; and NTTHNVNV, with “inactive”; and NVFMTWYTARGFMCYPSWDR, with 0.324 ± 0.43. For the substance NVGNRCYWWVLMARLLSIFR, the amyloid nucleation score entry is “inactive”. Take NVIGPSNRVTSWMVKSMQMY: the amyloid nucleation score result is “inactive”.

NVIYFHTQGMY: the amyloid nucleation score entry is “inactive”. With NVLLFLIVKHSVGIFVV, the amyloid nucleation score entry is “inactive”. Regarding NVLVN, the amyloid nucleation score entry is “inactive”.

In the case of NVMDCSYITNVNIYSHHWDY, the amyloid nucleation score amounted to 2.1 ± 0.055. Then NVNILFDNLIRDWFVSMWED, with “inactive”; and NVNMYIDFVLIDMNWQNCTQ, with 3.05 ± 0.062. As for NVPKPGTFFCDKCYYGCVWD, the figure is 0.642 ± 0.48; as for NVRLYHFSGET, 0.031 ± 0.41.

As for NVRVGILQR, the amyloid nucleation score result was “inactive”. NVSFILLYGQCSECTQDA came in with an amyloid nucleation score of 2.03 ± 0.067. As for NVSLVTVWWDNHY, the entry is “inactive”; as for NVVWIYTIFRGVCFGYRRWA, “inactive”.

As for NVYFGRYFI, the amyloid nucleation score result was “inactive”. Then NWEFDSNAILDSMLVMNRLT, with “inactive”; and NWFTMSNFMFYRTFCFIYSS, with “inactive”.

For NWHDYSSGVGLKIRGECMNV, the amyloid nucleation score entry is “inactive”. Consider NWNSSHLNREYTRHFSGMMV, for which the amyloid nucleation score entry is “inactive”. NWSLSKSRHIPLGTCRGISY displayed an amyloid nucleation score of -0.201 ± 0.84. As for NWSTIECMYMASVVLNARFG, the entry is “inactive”; as for NYFGPGKQWPID, “inactive”; as for NYGGFKDFG, 1.51 ± 0.088. Consider NYLGWPDIKCHGYVDSFLFV, for which the amyloid nucleation score entry is “inactive”. As for NYLKFCFSCRCIVLSRTVSW, the amyloid nucleation score result is “inactive”. For NYLRSVLMASGWYWILCIHF, the amyloid nucleation score entry is “inactive”. Take NYPLRFLGKLAAT: the amyloid nucleation score entry was “inactive”. Then NYPSYSMHNDIFYAFNFSIS, with 2.17 ± 0.084. In the case of NYSSAQEYKVSQERIS, the amyloid nucleation score entry is “inactive”.

In turn, NYVVIPRFMYLVQIYLKVFW displayed an amyloid nucleation score of -0.064 ± 0.8. As for NYWEIEYGVAGCSFLEGMRH, the amyloid nucleation score entry is “inactive”. Then PAKPGL, with “inactive”; and PARGLDQEMSSKVFMRGYLA, with “inactive”. Then PCFLMGPVIPIVFALYKILV, with “inactive”. As for PCRKMIQKIVQM, the entry is “inactive”; as for PDAVTILGGVYHVVQSWG, “inactive”; as for PDGTQINFN, “inactive”. With PDLIDVFGE, the amyloid nucleation score result is “inactive”. Then PDLRLMVVCASYPGSATRAM, with “inactive”. Turning to PECFVTGIRGTSCCRESVD, the amyloid nucleation score entry was “inactive”.

Take PEEDRFLTQSPMLRFIITHM: the amyloid nucleation score result was “inactive”. As for PEKMFPSPVTATRFANCVL, the entry is “inactive”. For the substance PEPHLKSEKYNCSGDWPLPL, the amyloid nucleation score entry is “inactive”. In the case of PFAEQRRL, the amyloid nucleation score entry was “inactive”.
